What was measured:
[1] = target: TSP4-N181 (AD-XD1 of TSP4) (bacteriophage CBA120) (UniProt G3M192); experiment: AUC; sedimentation velocity of single proteins and of mixtures, PBS pH 7.4, 20 °C, absorbance at 280 nm, 30-50 krpm; c(s) by SEDFIT; Kd and koff by Lamm equation modelling with a two-site heterogeneous association model A + B + B = AB + B = ABB (A: TSP4-N335 hexamer, B: partner TSP trimer; two symmetric sites, no cooperativity)
[2] = target: TSP4-N253 (AD-XD1-XD2 of TSP4, lacking XD3) (bacteriophage CBA120) (UniProt G3M192); experiment: as above
[3] = target: TSP4-N490 (AD-XD1-XD2-XD3 region followed by the D1-D2 head region of TSP4) (bacteriophage CBA120) (UniProt G3M192); experiment: as above
[4] = target: TSP4 devoid of the AD-XD1 domains, residues 185-1036 (bacteriophage CBA120) (UniProt G3M192); experiment: as above
[5] = target: TSP4-N335, the 335 N-terminal residues of tailspike protein 4 of bacteriophage CBA120 (AD-XD1-XD2-XD3) (bacteriophage CBA120) (UniProt G3M192); experiment: as above
[6] = target: TSP4-N335, the 335 N-terminal residues of tailspike protein 4 of bacteriophage CBA120 (AD-XD1-XD2-XD3) (bacteriophage CBA120) (UniProt G3M192); experiment: AUC; sedimentation equilibrium, PBS, 20 °C, 3 or 4 speeds (3000-12,000 rpm); global fit with SEDPHAT; for mixtures the two-site model A + B + B = AB + B = ABB
[7] = target: the molecule itself; experiment: AUC; sedimentation velocity of single proteins and of mixtures, PBS pH 7.4, 20 °C, absorbance at 280 nm, 30-50 krpm; c(s) by SEDFIT; Kd and koff by Lamm equation modelling with a two-site heterogeneous association model A + B + B = AB + B = ABB (A: TSP4-N335 hexamer, B: partner TSP trimer; two symmetric sites, no cooperativity)
[8] = target: TSP4-N335, the 335 N-terminal residues of tailspike protein 4 of bacteriophage CBA120 (AD-XD1-XD2-XD3) (bacteriophage CBA120) (UniProt G3M192); experiment: as above; remark: listed apart in the source
[9] = target: TSP4-N335, the 335 N-terminal residues of tailspike protein 4 of bacteriophage CBA120 (AD-XD1-XD2-XD3) (bacteriophage CBA120) (UniProt G3M192); experiment: AUC; sedimentation velocity in 50 mM TRIS pH 8.0 or HEPES pH 7.3, 150 mM NaCl, 0.1-0.5 mM Zn2+ (100 μM ZnCl2 in the legend)
[10] = target: the molecule itself; experiment: as above
[11] = target: TSP4-N181 (AD-XD1 of TSP4) (bacteriophage CBA120) (UniProt G3M192); experiment: AUC; sedimentation velocity of single proteins and of mixtures, PBS pH 7.4, 20 °C, absorbance at 280 nm, 30-50 krpm; c(s) by SEDFIT; Kd and koff by Lamm equation modelling with a two-site heterogeneous association model A + B + B = AB + B = ABB (A: TSP4-N335 hexamer, B: partner TSP trimer; two symmetric sites, no cooperativity); remark: listed apart in the source
[12] = target: TSP4-N490 (AD-XD1-XD2-XD3 region followed by the D1-D2 head region of TSP4) (bacteriophage CBA120) (UniProt G3M192); experiment: as above; remark: listed apart in the source

Molecule: TSP4-N181 (AD-XD1 of TSP4) (from UniProt G3M192 1-181) (domain or fragment)
- stoichiometry N [1]: 6

Molecule: TSP4-N253 (AD-XD1-XD2 of TSP4, lacking XD3) (from UniProt G3M192 1-253) (domain or fragment)
- stoichiometry N [2]: 6

Molecule: TSP4-N490 (AD-XD1-XD2-XD3 region followed by the D1-D2 head region of TSP4) (from UniProt G3M192 1-490) (domain or fragment)
- stoichiometry N [3]: 6

Molecule: TSP4 devoid of the AD-XD1 domains, residues 185-1036 (from UniProt G3M192 185-1036) (domain or fragment)
- stoichiometry N [4]: 3

Molecule: TSP4-N335, the 335 N-terminal residues of tailspike protein 4 of bacteriophage CBA120 (AD-XD1-XD2-XD3) (from UniProt G3M192 1-335) (domain or fragment)
- stoichiometry N ([5]; mixed monomer and hexamer sample): 3
- stoichiometry N ([5]; purified single-species sample): 6

B1: Tailspike protein 1 of bacteriophage CBA120 (natural protein)
chain: MNEMFSQGGKGSTGILTNKQAVARHFGVKQSEVVYFSVGVDLGGYKVIYDKETQRAYSLPVGIASGTTAVSLSTAAVLVHSAGSVDLGSLAVSREEYVTLPGSFDSGSTLNVKNELLTYTDGKYRWDGILPKTVAPGSTPASTGGVGLGAWISVGDASLRTQLANGDGSLIGIHPQGTLNNVLTVRTPEQYNAVGDGIADDTSKLKEMLSDINNVPETLPDAAAVNSYMEQVAVKIDLTKLYRFTETLYIPPGVSIEIPTSNFFTRECKQGLFYDPVDKNTAAISLMVYRKQPDGSYKLNKDVDYYPTGLDIDNGDAITCARKIDINNLNLITAPGVKVGVKWIGGAGCTTKGLSIGENTGSDITTARLPRVGLLQSASWGSIHENLRILYKTQGAVFIDSNGGAAVNNAYISRLGNTNGELEQAVYKPAGFTEVGDVAVTQFAGSEVKFNSPIIEQASFDFVHAGRDTDSYGLFMVDKPHIESSGGKKKHSFYLINTSSNVTLSGVGLSGQDPDLDSMYFLKNCPETARNVVRGQMPISGVKLVRGTGNYPTLVLDCTNMGSQFQFGEVGDIFYIKDVVGVKADTLYIDPVNGNNYNWGTNGTKPIRELTNIAKICQLFRCKSVYLNAGESVITSNTELPMVVFEGPGSLKANSGSSFLIKAGGTLSLIGLSGISTDGGHMFRVSTVEKVNIHTNCSVNAGAAYVVLSEVQGNIEYRQLFYSVNCSKYIGATAGQTIAGIMVKTATRPTGIDAAPVDGNVSLTYKIIES
notes: Homotrimer by SV (MWcalc of the trimer 248 kDa); also called TSP1
- Kd [6]: 80 nM
- stoichiometry N [7]: 3
- Kd [8]: 60 nM
- koff [8]: 0.0001 s⁻¹
- stoichiometry N (TSP1:TSP4-N335 (chains)) ([8]; one trimer bound per hexamer): 0.5
- stoichiometry N (TSP1:TSP4-N335 (chains)) ([8]; two trimers bound per hexamer): 1

B2: TSP1 head, residues 14-166 (D1-D2 domains and the alpha-helical neck, without the 13 N-terminal amino acids) (domain or fragment, bacteriophage CBA120, UniProt G3M189 14-166, looked up)
chain: GILTNKQAVARHFGVKQSEVVYFSVGVDLGGYKVIYDKETQRAYSLPVGIASGTTAVSLSTAAVLVHSAGSVDLGSLAVSREEYVTLPGSFDSGSTLNVKNELLTYTDGKYRWDGILPKTVAPGSTPASTGGVGLGAWISVGDASLRTQLANG
notes: TSP1 of phage CBA120, D1-D2 head and neck, residues 14-166; Trimerisation was promoted by Zn2+; also called TSP1_(14-166); TSP1-N_(14-166)
- stoichiometry N (TSP1 (14-166):TSP4-N335 (chains)) ([9]; one trimer bound per hexamer): 0.5
- stoichiometry N (TSP1 (14-166):TSP4-N335 (chains)) ([9]; two trimers bound per hexamer): 1
- stoichiometry N [10]: 3

B3: Tailspike protein 2 of bacteriophage CBA120 (natural protein, UniProt G3M190 1-921, looked up)
chain: MTRNVEELFGGVITAPHQIPFTYKSNVGGETFLSLPFYPVTGVVTINGGMQVPLDNFEIEGNTLNLGRALSKGDVVYCLFDKILSPEDTAKGIRIYKFQAVGGETEFTPDFTSYGVQSLYIGGEYKTPEIEYSYDSTTGKVSLQTALSAGVWVVAEMSVKQPNISPAFDRSIQEIARSANVKDSEVIVSTDTISLLDGKKVVYDIATQTSYGLPTIPDGSVISSVSAGKLNYNPGDVQVDLLPLEDSFINVINTLGRNDGAKYIGECHSVADLRNTEPTMDGQRIILKQHTAGTLLGGGVFRALIDGTGKTDNNGTVIKTVGGAAWLRVNADRVNPFMFGALGGSNDDTIPVQSCVDSGKATQLTDAHYVSNIQLKYNTSSIYGSGLHYSRLHQLPSATGNCITIKDTCSLIVLDAFGVYGTGAQQGTSFTAGTTGIYVETPSGLSADYPFHTTADPRRDLCISKVHIAGFDEYGLNIDSGNFSVTTDSLLVNHINQVGVRCATTDWTWTNIQVNTCGKQCLVLDGCGNGRIIGGKFIWANWQPYGTVGQFPGITINNSQNMVINGIEVQDCGGNGIEISESYSISMNGLNTNRNGINANNTFYNIVFNKSDAVINGFVGLNYAANSGSGANSSAGNFQFLSNDCSVTINGVVETGYMGINFIGDNNIINPTNSDLSINGLVNYSKTGLQTMNETPTFDGVSTTPVYVSVPSSVGQVNGLRLSQANKDKLLYSRTAGPEGITMAAVIVPTISGAEVFNFMAIGSGFSDTSNSLHLQLVIDASGKQTIALLLGGDGTTQILSGDLPNDLKLQSGVPYHIAIGAKPGYFWWSILNIQTGKRIRRSFRGAYLAVPFNSIFGLTSSLTFFSDSNAGGDACSGVGAKVYVGMFSSENDYVASRYYNLINPVDPTKLISYRILDSSI
notes: Homotrimer by SV (MWcalc of the trimer 297 kDa); also called TSP2
- Kd [6]: 75 nM
- stoichiometry N [7]: 3
- stoichiometry N (TSP2:TSP4-N181 (chains)) ([11]; one trimer bound per hexamer): 0.5
- stoichiometry N (TSP2:TSP4-N181 (chains)) ([11]; two trimers bound per hexamer): 1
- stoichiometry N (TSP2:TSP4-N490 (chains)) ([12]; one trimer bound per hexamer): 0.5
- stoichiometry N (TSP2:TSP4-N490 (chains)) ([12]; two trimers bound per hexamer): 1
- Kd [8]: 110 nM
- koff [8]: 0.00025 s⁻¹
